Reference: PMC5274527

Tests used:
[1] = target: human red cone opsin fused at its C-terminus to eGFP or mCherry (human) (UniProt P04000); assay: FRET or BRET
[2] = target: human red cone opsin fused at its C-terminus to eGFP or mCherry (human) (UniProt P04000); assay: fluorescence correlation spectroscopy
[3] = target: human red cone opsin fused at its C-terminus to eGFP or mCherry (human) (UniProt P04000); assay: pulsed-interleaved excitation fluorescence cross-correlation spectroscopy
[4] = target: human red cone opsin with C-terminal 1D4 tag (pcDNA3.1(+), without eGFP) (human) (UniProt P04000); assay: cross-linking

Substance | FRET efficiency (average) [1] | FRET efficiency (highest single-cell value) [1] | average molecular brightness [2] | stoichiometry N [2] | median fc (relative cross-correlation) [3] | percent DSG dimers (of monomer plus dimer bands) [4]
human red cone opsin fused at its C-terminus to eGFP or mCherry (from UniProt P04000 1-352) (receptor) | 3.6% | 12% | 738 cpsm | 2 | 0.19 | 
human red cone opsin with C-terminal 1D4 tag (pcDNA3.1(+), without eGFP) (from UniProt P04000 1-352) (receptor) |  |  |  |  |  | 79%
